{
  "source": "paper PMC8575140",
  "about": "(bioRxiv, 2021)",
  "binders": {"B1": {"name": "NCI-CoV-1B5 VHH (VHH)", "VHH": "DVQLVESGGGSVQAGGSLRLSCTGSRYTYSTYCMGWFRQAPGKEEEAVAIINSGGGEPYYGDSVKGRFTISQDRAKNTVYLQMDGLQPDDTAIYYCVAADSHNSRCYLGRSYVNYWGQGTQVTVSS"}},
  "target": "SARS-CoV-2 receptor-binding domain (SARS-CoV-2, UniProt P0DTC2)",
  "data": [
    {"binder": "B1", "values": [
      {"measurement": "IC50", "result": 3.2, "unit": "nM"}
    ]}
  ]
}
